Molecular target: folate receptor alpha (FR-α) (human, UniProt P15328 25-234)
Assay: FACS binding on T47D cells

Chain of folate receptor alpha (FR-α) (P15328 25-234): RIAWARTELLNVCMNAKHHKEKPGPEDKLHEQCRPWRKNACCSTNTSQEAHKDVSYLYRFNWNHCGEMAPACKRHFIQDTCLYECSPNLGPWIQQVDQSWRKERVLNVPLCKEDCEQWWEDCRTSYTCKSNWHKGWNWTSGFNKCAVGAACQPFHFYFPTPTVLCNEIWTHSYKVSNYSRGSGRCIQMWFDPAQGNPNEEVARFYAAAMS

Binder | EC50
huMOV19-sSPDB-Compound A (antibody, Compound A linked through a sulfo-SPDB linker to amino groups of lysine residues, positions not given; Compound A linked through a sulfo-SPDB linker to amino groups of lysine residues, positions not given; average 2.4 Compound A per antibody) heavy: not shown light: DIVLTQSPLSLAVSLGQPAIISCKASQSVSFAGTSLMHWYHQKPGQQPRLLIYRASNLEAGVPDRFSGSGSKTDFTLTISPVEAEDAATYYCQQSREYPYTFGGGTKLEIKRTVAAPSVFIFPPSDEQLKSGTASVVCLLNNFYPREAKVQWKVDNALQSGNSQESVTEQDSKDSTYSLSSTLTLSKADYEKHKVYACEVTHQGLSSPVTKSFNRGEC | 0.426 nM
huMOV19-NTS #2 (antibody) heavy: not shown light: DIVLTQSPLSLAVSLGQPAIISCKASQSVSFAGTSLMHWYHQKPGQQPRLLIYRASNLEAGVPDRFSGSGSKTDFTLTISPVEAEDAATYYCQQSREYPYTFGGGTKLEIKRTVAAPSVFIFPPSDEQLKSGTASVVCLLNNFYPREAKVQWKVDNALQSGNSQESVTEQDSKDSTYSLSSTLTLSKADYEKHKVYACEVTHQGLSSPVTKSFNRGEC | 0.243 nM
huMOV19-NTS #2-Linker1-Compound A (antibody, N-terminal Ser oxidized to an aldehyde and linked through Linker1 to Compound A (sulfonated DGN462); two Compound A molecules per antibody) heavy: not shown light: DIVLTQSPLSLAVSLGQPAIISCKASQSVSFAGTSLMHWYHQKPGQQPRLLIYRASNLEAGVPDRFSGSGSKTDFTLTISPVEAEDAATYYCQQSREYPYTFGGGTKLEIKRTVAAPSVFIFPPSDEQLKSGTASVVCLLNNFYPREAKVQWKVDNALQSGNSQESVTEQDSKDSTYSLSSTLTLSKADYEKHKVYACEVTHQGLSSPVTKSFNRGEC | 0.881 nM
huMOV19 (antibody) heavy: not shown light: DIVLTQSPLSLAVSLGQPAIISCKASQSVSFAGTSLMHWYHQKPGQQPRLLIYRASNLEAGVPDRFSGSGSKTDFTLTISPVEAEDAATYYCQQSREYPYTFGGGTKLEIKRTVAAPSVFIFPPSDEQLKSGTASVVCLLNNFYPREAKVQWKVDNALQSGNSQESVTEQDSKDSTYSLSSTLTLSKADYEKHKVYACEVTHQGLSSPVTKSFNRGEC | 0.323 nM
